Laboratory results published in patent publication US20200079833A1 (AstraZeneca / MedImmune, published 2020).
Starred links: 1 amine or outer side, 2 acyl side, 3 side chain; linkers in the order of their positions; H or OH if unused. Non-standard residues stand in square brackets, D forms with d. Groups on a side chain read outwards from the residue. Primed or numbered codes have the meaning given here. No end group written: not given here. *: point of attachment. γGlu = O=C(O)[C@H](CCC(=O)[*:2])N[*:1]; Stearoyl = CCCCCCCCCCCCCCCCCC(=O)*; Palmitoyl = CCCCCCCCCCCCCCCC(=O)*; αMeF = C[C@](N)(Cc1ccccc1)C(=O)O; αMeK = C[C@](N)(CCCCN)C(=O)O; αMeS = C[C@](N)(CO)C(=O)O; PEG2′ = not defined here; Aib = CC(C)(N)C(=O)O

T1: glucose-dependent insulinotropic peptide (gastric inhibitory polypeptide) receptor (GIPR) (human, UniProt P48546 22-466)
T1 sequence (looked up): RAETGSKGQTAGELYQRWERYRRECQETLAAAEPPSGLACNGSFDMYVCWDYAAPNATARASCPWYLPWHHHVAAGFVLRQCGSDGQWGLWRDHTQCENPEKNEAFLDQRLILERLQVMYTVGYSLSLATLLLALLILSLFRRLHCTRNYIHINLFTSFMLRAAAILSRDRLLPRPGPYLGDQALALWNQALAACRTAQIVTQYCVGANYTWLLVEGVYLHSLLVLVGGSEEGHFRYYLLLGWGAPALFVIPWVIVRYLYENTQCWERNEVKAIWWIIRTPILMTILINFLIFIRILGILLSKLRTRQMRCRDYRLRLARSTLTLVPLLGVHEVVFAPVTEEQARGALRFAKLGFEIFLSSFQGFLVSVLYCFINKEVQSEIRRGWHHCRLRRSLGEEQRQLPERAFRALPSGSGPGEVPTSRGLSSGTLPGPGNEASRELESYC

B1: SEQ ID NO 97 (peptide)
peptide: H[Aib]K([γGlu-Palmitoyl])GS[αMeF]TSDV[αMeS]S[αMeF]LEGEAA[αMeK]E[αMeF]IA[αMeF]VV[αMeK]GG-NH2
modifications: N-terminus assumed
SMILES: CCCCCCCCCCCCCCCC(=O)N[C@@H](CCC(=O)NCCCC[C@H](NC(=O)C(C)(C)NC(=O)[C@@H](N)Cc1c[nH]cn1)C(=O)NCC(=O)N[C@@H](CO)C(=O)N[C@@](C)(Cc1ccccc1)C(=O)N[C@H](C(=O)N[C@@H](CO)C(=O)N[C@@H](CC(=O)O)C(=O)N[C@H](C(=O)N[C@@](C)(CO)C(=O)N[C@@H](CO)C(=O)N[C@@](C)(Cc1ccccc1)C(=O)N[C@@H](CC(C)C)C(=O)N[C@@H](CCC(=O)O)C(=O)NCC(=O)N[C@@H](CCC(=O)O)C(=O)N[C@@H](C)C(=O)N[C@@H](C)C(=O)N[C@@](C)(CCCCN)C(=O)N[C@@H](CCC(=O)O)C(=O)N[C@@](C)(Cc1ccccc1)C(=O)N[C@H](C(=O)N[C@@H](C)C(=O)N[C@@](C)(Cc1ccccc1)C(=O)N[C@H](C(=O)N[C@H](C(=O)N[C@@](C)(CCCCN)C(=O)NCC(=O)NCC(N)=O)C(C)C)C(C)C)[C@@H](C)CC)C(C)C)[C@@H](C)O)C(=O)O

Target: glucagon receptor (GCGR) (human, UniProt P47871 26-477)
Assay: cell-based or functional assay

glucagon receptor (GCGR), sequence (P47871 26-477): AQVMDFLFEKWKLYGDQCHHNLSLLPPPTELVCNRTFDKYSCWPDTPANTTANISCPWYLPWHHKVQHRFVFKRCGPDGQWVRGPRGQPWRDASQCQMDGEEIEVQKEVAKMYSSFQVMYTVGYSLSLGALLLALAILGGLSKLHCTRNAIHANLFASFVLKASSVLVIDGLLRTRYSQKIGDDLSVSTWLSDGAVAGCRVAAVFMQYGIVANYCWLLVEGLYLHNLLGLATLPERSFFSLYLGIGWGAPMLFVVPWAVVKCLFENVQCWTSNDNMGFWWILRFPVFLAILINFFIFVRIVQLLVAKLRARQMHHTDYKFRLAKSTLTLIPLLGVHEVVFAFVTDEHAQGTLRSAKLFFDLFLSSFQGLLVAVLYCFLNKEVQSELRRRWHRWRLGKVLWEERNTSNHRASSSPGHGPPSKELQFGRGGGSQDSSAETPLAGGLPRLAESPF

cAMP Primary assay EC50 Gluc-R [nM] | cAMP Primary assay EC50 Gluc-R (2nd) [nM] | Binder
25 | 24.9 | H[Aib]EGS[αMeF]TSDV[αMeS]S[αMeF]LEGEAA[αMeK]E[αMeF]IA[αMeF]VV[αMeK]K([PEG2′-PEG2′-γGlu-Stearoyl])G-NH2 [SEQ ID NO 100]
25 | 25.3 | H[Aib]EGS[αMeF]TSDV[αMeS]S[αMeF]LEGEAA[αMeK]E[αMeF]K([PEG2′-PEG2′-γGlu-Stearoyl])A[αMeF]VV[αMeK]GG-NH2 [SEQ ID NO 106]
26 | 25.6 | H[Aib]EGS[αMeF]TSDV[αMeS]S[αMeF]LEGEAAK([PEG2′-PEG2′-γGlu-Palmitoyl])E[αMeF]IA[αMeF]VV[αMeK]GG-NH2 [SEQ ID NO 109]
25 | 25.2 | H[Aib]EGS[αMeF]TSDV[αMeS]S[αMeF]LEGEAA[αMeK]E[αMeF]IA[αMeF]VK([PEG2′-PEG2′-γGlu-Stearoyl])[αMeK]GG-NH2 [SEQ ID NO 102]
28 | 28 | HK([γGlu-Palmitoyl])EGS[αMeF]TSDV[αMeS]S[αMeF]LEGEAA[αMeK]E[αMeF]IA[αMeF]VV[αMeK]GG-NH2 [SEQ ID NO 98]
25 | 25.2 | H[Aib]EGS[αMeF]TSDV[αMeS]S[αMeF]LEGEAA[αMeK]E[αMeF]IA[αMeF]K([PEG2′-PEG2′-γGlu-Stearoyl])V[αMeK]GG-NH2 [SEQ ID NO 103]
26 | 25.6 | H[Aib]EGS[αMeF]TSDV[αMeS]S[αMeF]LEGEAA[αMeK]E[αMeF]IAK([PEG2′-PEG2′-γGlu-Stearoyl])VV[αMeK]GG-NH2 [SEQ ID NO 104]
28 | 28 | B1

Target: GLP-1 receptor (GLP-1R) (human, UniProt P43220 24-463)
Assay: cell-based or functional assay

cAMP Mean pM GLP-1R [pM] | cAMP Primary assay EC50 GLP-1R n1 [pM] | cAMP Primary assay EC50 GLP-1R n2 [pM] | Binder
15 | 16 | 14.6 | H[Aib]EGS[αMeF]TSDV[αMeS]S[αMeF]LEGEAA[αMeK]E[αMeF]IA[αMeF]VV[αMeK]K([PEG2′-PEG2′-γGlu-Stearoyl])G-NH2 [SEQ ID NO 100]
6140 | 6500 | 5790 | H[Aib]EGS[αMeF]TSDV[αMeS]S[αMeF]LEGEAA[αMeK]E[αMeF]K([PEG2′-PEG2′-γGlu-Stearoyl])A[αMeF]VV[αMeK]GG-NH2 [SEQ ID NO 106]
34 | 34 | 34.6 | H[Aib]EGS[αMeF]TSDV[αMeS]S[αMeF]LEGEAAK([PEG2′-PEG2′-γGlu-Palmitoyl])E[αMeF]IA[αMeF]VV[αMeK]GG-NH2 [SEQ ID NO 109]
22 | 24 | 20.6 | H[Aib]EGS[αMeF]TSDV[αMeS]S[αMeF]LEGEAA[αMeK]E[αMeF]IA[αMeF]VK([PEG2′-PEG2′-γGlu-Stearoyl])[αMeK]GG-NH2 [SEQ ID NO 102]
27500 | 28000 | 28000 | HK([γGlu-Palmitoyl])EGS[αMeF]TSDV[αMeS]S[αMeF]LEGEAA[αMeK]E[αMeF]IA[αMeF]VV[αMeK]GG-NH2 [SEQ ID NO 98]
5 | 4.7 | 4.56 | H[Aib]EGS[αMeF]TSDV[αMeS]S[αMeF]LEGEAA[αMeK]E[αMeF]IA[αMeF]K([PEG2′-PEG2′-γGlu-Stearoyl])V[αMeK]GG-NH2 [SEQ ID NO 103]
5 | 5.9 | 5.11 | H[Aib]EGS[αMeF]TSDV[αMeS]S[αMeF]LEGEAA[αMeK]E[αMeF]IAK([PEG2′-PEG2′-γGlu-Stearoyl])VV[αMeK]GG-NH2 [SEQ ID NO 104]
27800 | 28000 | 28000 | B1

Target: T1, glucose-dependent insulinotropic …
Assay: cell-based or functional assay

cAMP Primary assay EC50 GIP-R [nM] | cAMP Primary assay EC50 GIP-R (2nd) [nM] | Binder
25 | 24.9 | H[Aib]EGS[αMeF]TSDV[αMeS]S[αMeF]LEGEAA[αMeK]E[αMeF]IA[αMeF]VV[αMeK]K([PEG2′-PEG2′-γGlu-Stearoyl])G-NH2 [SEQ ID NO 100]
25 | 25.3 | H[Aib]EGS[αMeF]TSDV[αMeS]S[αMeF]LEGEAA[αMeK]E[αMeF]K([PEG2′-PEG2′-γGlu-Stearoyl])A[αMeF]VV[αMeK]GG-NH2 [SEQ ID NO 106]
26 | 25.6 | H[Aib]EGS[αMeF]TSDV[αMeS]S[αMeF]LEGEAAK([PEG2′-PEG2′-γGlu-Palmitoyl])E[αMeF]IA[αMeF]VV[αMeK]GG-NH2 [SEQ ID NO 109]
25 | 25.2 | H[Aib]EGS[αMeF]TSDV[αMeS]S[αMeF]LEGEAA[αMeK]E[αMeF]IA[αMeF]VK([PEG2′-PEG2′-γGlu-Stearoyl])[αMeK]GG-NH2 [SEQ ID NO 102]
28 | 28 | HK([γGlu-Palmitoyl])EGS[αMeF]TSDV[αMeS]S[αMeF]LEGEAA[αMeK]E[αMeF]IA[αMeF]VV[αMeK]GG-NH2 [SEQ ID NO 98]
25 | 25.2 | H[Aib]EGS[αMeF]TSDV[αMeS]S[αMeF]LEGEAA[αMeK]E[αMeF]IA[αMeF]K([PEG2′-PEG2′-γGlu-Stearoyl])V[αMeK]GG-NH2 [SEQ ID NO 103]
26 | 25.6 | H[Aib]EGS[αMeF]TSDV[αMeS]S[αMeF]LEGEAA[αMeK]E[αMeF]IAK([PEG2′-PEG2′-γGlu-Stearoyl])VV[αMeK]GG-NH2 [SEQ ID NO 104]
28 | 28 | B1
